Results on one molecule are retold here after PMC2199204 (The Journal of Cell Biology, 2001).

The target in the assay is T1, endogenous RasGRP (human (endogenous in A172), UniProt O95267 1-797).
T1 sequence (looked up): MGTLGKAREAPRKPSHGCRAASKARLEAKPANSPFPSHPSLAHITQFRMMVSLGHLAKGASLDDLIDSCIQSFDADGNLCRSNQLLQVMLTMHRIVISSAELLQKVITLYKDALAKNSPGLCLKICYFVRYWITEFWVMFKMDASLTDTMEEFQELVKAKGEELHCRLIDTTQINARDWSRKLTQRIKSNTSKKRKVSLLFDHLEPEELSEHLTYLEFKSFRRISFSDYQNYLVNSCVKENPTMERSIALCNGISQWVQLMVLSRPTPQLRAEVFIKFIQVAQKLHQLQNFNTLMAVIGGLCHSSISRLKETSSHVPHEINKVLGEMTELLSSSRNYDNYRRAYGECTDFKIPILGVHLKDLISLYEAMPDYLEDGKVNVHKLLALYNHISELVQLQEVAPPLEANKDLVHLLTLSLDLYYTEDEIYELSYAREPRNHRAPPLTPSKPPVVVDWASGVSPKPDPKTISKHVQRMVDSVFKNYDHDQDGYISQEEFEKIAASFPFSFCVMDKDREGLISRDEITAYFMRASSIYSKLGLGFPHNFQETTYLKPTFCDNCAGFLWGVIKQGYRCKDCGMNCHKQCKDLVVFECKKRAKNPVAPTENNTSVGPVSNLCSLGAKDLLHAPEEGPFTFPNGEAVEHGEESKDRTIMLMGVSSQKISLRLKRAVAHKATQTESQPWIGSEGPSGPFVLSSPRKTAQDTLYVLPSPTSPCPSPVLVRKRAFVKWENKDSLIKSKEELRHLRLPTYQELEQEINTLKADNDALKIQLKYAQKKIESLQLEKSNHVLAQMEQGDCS
The assay is described as follows: co-IP.

B1: endogenous DGKζ (enzyme)
chain: not shown
Consider B1, for which the “fold associated DGK activity, PMA-treated over untreated cells” value was 1.9 fold.
